Measured values as given in patent US9624285B2, “Methods of treating diabetes and compositions capable of same” (Ramot a Tel-Aviv University Ltd., priority 2010, dated 2017).
No end group written: not given here.

B1: hIAPP oligomers: isolated stable oligomers (dimers, trimers, ~90 kDa) of synthetic human islet amyloid polypeptide prepared with HFIP, NaOH and SDS (peptide)
peptide: MGILKLQVFLIVLSVALNHLKATPIESHQVEKRKCNTATCATQRLANFLVHSSNNFGAILSSTNVGSNTYGKRNAVEVLKREPLNYLPL

Tests used:
Rin-m cells [1] = experiment: Confocal microscopy of cells incubated with labelled oligomers; assay type: cell-based; conditions: 5 μM
Method: Rin-m cells were cultured on glass cover slips located in 24-well micro plates, then incubated for different periods with hIAPP-Hiytelfluor 488 (Anaspec, USA) oligomers (5 μM) at 37° C., as described in the cell cytotoxicity experiments section. After incubation cells were washed with PBS buffer and fixed with 4% paraformaldehyde in PBS for 5 minutes and washed with PBS buffer. Cells were treated with 1% Triton x-100 in PBS and stained with 50 μg/ml Phalloidin Tetramethyl-rhodamine B isothiocyanate (Sigma-Aldrich) in PBS 40 minutes in room temperature, followed by extensive wash with PBS buffer. The cells were imaged using LSM 510 confocal laser scanning microscope (Carl Zeiss Jena, Germany).

Rin-m cells [2] = experiment: MTT reduction assay; assay type: cell-based
Method: Rin-m cells (2×10^5 cells/ml) were cultured in 96-well micro plates (100 μl/well) and incubated overnight at 37° C. Human oligomers and rat IAPP was added to each well at various concentrations. Each measurement was repeated four times. Following incubation for 6 hours at 37° C., cell viability was evaluated using 3-(4,5-dimethylthiazolyl-2)-2,5-diphenyltetrazolium bromide (MTT) assay. Briefly, 20 μL of 5 mg/ml MTT dissolved in PBS was added to each well. After 4 hours incubation at 37° C., 100 μl of extraction buffer [20% SDS dissolved in a solution of 50% dimethylformamide and 50% DDW (pH 4.7)] was added to each well, and the plates were incubated again overnight at 37° C. Finally, color intensity was measured using an ELISA plate reader at 570 nm.

[3] = Oligomer stability assay (PAGE under non reducing conditions); assay type: physicochemical; conditions: dialyzed against PBS buffer, incubated at 37° C.
Method: FIGS. 1A-E are graphs and photographs illustrating characterization of human IAPP oligomers. (FIG. 1A) PAGE analysis under non-reducing conditions of human IAPP oligomers and a negative control of non amyloidogenic rat IAPP (I-monomer, II-dimer and III-trimer). (FIG. 1B) Oligomer stability assay, hIAPP oligomers were dialyzed against PBS buffer and incubated at 37° C. Oligomer association/disassociation was monitored by PAGE analysis under non reducing conditions. (FIG. 1C) Size exclusion chromatography (Superdex 75 10/300, PBS buffer pH 7.4) of hIAPP oligomers; I-monomer, […], III-trimer and IV-90 kDa oligomer. (FIG. 1D) Transmittance electron microscopy (TEM) and atomic force microscopy (AFM) images of the ˜90 kDa oligomers, TEM scale bar 100 nm, AFM scale bar 600 nm. (FIG. 1E) CD spectroscopy of hIAPP and rIAPP, protein concentration of 5 μM. Each spectrum represents the average of three measurements.
IAPP synthetic peptide (Human; H-7905, Bachem, Bubendorf, Switzerland. Rat; 74-5-10A, American peptide, California, U.S.A) was suspended in 100% 1,1,1,3,3,3 hexafluoro-2-propanol (HFIP) at 1 mg/ml and incubated for complete solubilization under shaking (100 rpm) at 37° C. for 2 hours. […] IAPP self-assembly products were analyzed by 15% Tris-tricine PAGE and stained with Imperial protein stain. […]

Rin-m cells [4] = experiment: Flow cytometry cell sorting (FACS) assay, Annexin V-FITC apoptosis detection; assay type: cell-based; conditions: 0.5 μM, 1 μM and 5 μM
Method: Rin-m cells (5×10^5 cells/ml) were cultured for 4 hours at 37° C. incubated with human IAPP oligomers (final concentration of 0.5 μM, 1 μM and 5 μM). Samples were washed with PBS buffer and resuspended with 500 μl binding buffer. 5 μl of Annexin V-FITC and 10 μl of propidium iodide (Annexin V-FITC apoptosis detection kit; MBL) was added to the samples. After 10 minutes of incubation in the dark at RT, samples were analyzed using the FACS Sort (Beckton Dickinson) and results analyzed using the CellQuest program (Beckton Dickinson). Each measurement was repeated three times. FL1-H represents the fluorescence of V-FITC and FL2-H represents the fluorescence of […].

[5] = pancreatic RIN-m cells, 100 nM-10 μM, 6 hours

| Molecule | cell morphology (confocal) (Rin-m cells [1]; after eight hours) | cell numbers (confocal) (Rin-m cells [1]; after four hours, insertion of oligomers to the cytoplasm) | interaction of oligomers with cells (confocal) (Rin-m cells [1]; after one hour) | cell viability (MTT reduction) (Rin-m cells [2]; [5]) | cell viability (MTT reduction) (Rin-m cells [2]; pancreatic cells, 5 μM oligomers) | oligomer stability (no disassembly or further polymerization to fibrils) [3] | oligomer stability (no disassembly or further polymerization to fibrils) ([3]; listed as oligomeric structures) | correlation of oligomer concentration with percentage of apoptotic cells (Rin-m cells [4]) | cell state (apoptosis) by FACS (Rin-m cells [4]; 4 hours) |
| --- | --- | --- | --- | --- | --- | --- | --- | --- | --- |
| hIAPP-Hiytelfluor 488 oligomers: oligomers of fluorescently labelled hIAPP-Hiytelfluor 488 (Anaspec) (KCNTATCATQRLANFLVHSSNNFGAILSSTNVGSNTY; not fully specified (C-terminus, bridges); cysteine pairing not given here; also: HiLyte Fluor 488 label, position not given here, oligomers; UniProt P10997 34-70, looked up) | Dramatic cell morphology changes | massive decline in cell numbers | intensive localization of the oligomers to the cell membrane |  |  |  |  |  |  |
| rIAPP: non amyloidogenic rat IAPP synthetic peptide, negative control, treated in the same manner [reference compound] |  |  |  | showed no such effect |  |  |  |  |  |
| B1 |  |  |  | dose dependent decrease in cell viability | reduced dramatically | up to 7 days | stable for up to seven days | clear and strong correlation | mostly in the early and late apoptotic phase |
